The labels stand for the following.
T1: human GIP receptor (human) (UniProt P48546)
T1 sequence (looked up): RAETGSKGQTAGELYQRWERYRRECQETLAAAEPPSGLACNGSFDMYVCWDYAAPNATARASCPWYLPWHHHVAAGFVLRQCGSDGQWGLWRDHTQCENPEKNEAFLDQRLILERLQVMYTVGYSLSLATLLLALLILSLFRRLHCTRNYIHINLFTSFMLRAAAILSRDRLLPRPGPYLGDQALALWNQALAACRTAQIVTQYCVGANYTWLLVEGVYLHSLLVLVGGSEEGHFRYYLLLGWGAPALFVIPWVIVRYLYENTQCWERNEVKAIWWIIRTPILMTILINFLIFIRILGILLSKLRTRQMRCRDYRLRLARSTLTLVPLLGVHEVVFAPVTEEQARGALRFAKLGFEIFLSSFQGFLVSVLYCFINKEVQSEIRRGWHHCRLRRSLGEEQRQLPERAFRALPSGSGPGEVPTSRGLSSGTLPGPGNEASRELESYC

B1: Example 69 (peptide)
chain: YXQGTFTSDFSXXLDKKAQXAFIEYLLEXGPSSGEPPPGEG
modifications: synthetic construct; SITE 2: note = 2-Aminoisobutyric Acid; SITE 12: note = L-ornithine; SITE 13: note = alpha-methyl-leucine; SITE 17: note = Lysine is chemically modified through conjugation of the epsilon-amino group of the Lysine side chain with (2-[2-(2-Amino-ethoxy)-ethoxy]-acetyl)2-(gamma-Glu)
B2: Example 78 (peptide)
chain: YXQGTFTSDFSXXLDKKAQXAFIEWLLEGGPSSGAPPPSGS
modifications: synthetic construct; SITE 2: note = 2-Aminoisobutyric Acid; SITE 12: note = L-ornithine; SITE 13: note = alpha-methyl-leucine; SITE 17: note = Lysine is chemically modified through conjugation of the epsilon-amino group of the Lysine side chain with (2-[2-(2-Amino-ethoxy)-ethoxy]-acetyl)-(gamma-Glu)
B3: Example 79 (peptide)
chain: B2 chain with X12R, W25Y, G29X
modifications: synthetic construct; SITE 2: note = 2-Aminoisobutyric Acid; SITE 13: note = alpha-methyl-leucine; SITE 17: note = Lysine is chemically modified through conjugation of the epsilon-amino group of the Lysine side chain with (2-[2-(2-Amino-ethoxy)-ethoxy]-acetyl)-(gamma-Glu)-CO-(CH2) 16-CO2H; SITE 20: n
B4: Example 51 (peptide)
chain: B2 chain with X12K, A21Q, W25Y, G40E, S41G
modifications: synthetic construct; SITE 2: note = 2-Aminoisobutyric Acid; SITE 13: note = alpha-methyl-leucine; SITE 17: note = Lysine is chemically modified through conjugation of the epsilon-amino group of the Lysine side chain with (2-[2-(2-Amino-ethoxy)-ethoxy]-acetyl)-(gamma-Glu)-CO-(CH2) 16-CO2H; SITE 20: n
B5: Example 55 (peptide)
chain: B1 chain with X12K, E35A
modifications: synthetic construct; SITE 2: note = 2-Aminoisobutyric Acid; SITE 13: note = alpha-methyl-leucine; SITE 17: note = Lysine is chemically modified through conjugation of the epsilon-amino group of the Lysine side chain with (2-[2-(2-Amino-ethoxy)-ethoxy]-acetyl)2-(gamma-Glu)-CO-(CH2 )18-CO2H; SITE 20:
B6: Example 75 (peptide)
chain: B2 chain with W25Y, G29X
modifications: synthetic construct; SITE 2: note = 2-Aminoisobutyric Acid; SITE 12: note = L-ornithine; SITE 13: note = alpha-methyl-leucine; SITE 17: note = Lysine is chemically modified through conjugation of the epsilon-amino group of the Lysine side chain with (2-[2-(2-Amino-ethoxy)-ethoxy]-acetyl)2-(gamma-Glu)
B7: Example 57 (peptide)
chain: B1 chain with X12K, E35A, G39S
modifications: synthetic construct; SITE 2: note = 2-Aminoisobutyric Acid; SITE 13: note = alpha-methyl-leucine; SITE 17: note = Lysine is chemically modified through conjugation of the epsilon-amino group of the Lysine side chain with (2-[2-(2-Amino-ethoxy)-ethoxy]-acetyl)-(gamma-Glu)-CO-(CH2) 16-CO2H; SITE 20: n
B8: Example 49 (peptide)
chain: B2 chain with X12K, W25Y, L27I, G40E, S41G
modifications: not fully specified; acylated side chain; synthetic construct; SITE 2: note = 2-Aminoisobutyric Acid; SITE 13: note = alpha-methyl-leucine; SITE 17: note = Lysine is chemically modified through conjugation of the epsilon-amino group of the Lysine side chain with (2-[2-(2-Amino-ethoxy)-ethoxy]-acetyl)-(gamma-Glu)-CO-gamma -gamma-(CH2)16-CO2H
B9: Example 71 (peptide)
chain: B1 chain with E35A, G39S
modifications: synthetic construct; SITE 2: note = 2-Aminoisobutyric Acid; SITE 12: note = L-ornithine; SITE 13: note = alpha-methyl-leucine; SITE 17: note = Lysine is chemically modified through conjugation of the epsilon-amino group of the Lysine side chain with (2-[2-(2-Amino-ethoxy)-ethoxy]-acetyl)2-(gamma-Glu)

Experimental findings from US20240270821A1, “GIP/GLP1/GCG TRI-RECEPTOR AGONISTS AND USES THEREOF” (priority 2023, published 2024) are described below.

Substitutions are numbered along the chain they refer to.

Sequence of human GLP1-R (SNAP-GLP-1R expressed in HEK293 cells) (human) (P43220 24-463): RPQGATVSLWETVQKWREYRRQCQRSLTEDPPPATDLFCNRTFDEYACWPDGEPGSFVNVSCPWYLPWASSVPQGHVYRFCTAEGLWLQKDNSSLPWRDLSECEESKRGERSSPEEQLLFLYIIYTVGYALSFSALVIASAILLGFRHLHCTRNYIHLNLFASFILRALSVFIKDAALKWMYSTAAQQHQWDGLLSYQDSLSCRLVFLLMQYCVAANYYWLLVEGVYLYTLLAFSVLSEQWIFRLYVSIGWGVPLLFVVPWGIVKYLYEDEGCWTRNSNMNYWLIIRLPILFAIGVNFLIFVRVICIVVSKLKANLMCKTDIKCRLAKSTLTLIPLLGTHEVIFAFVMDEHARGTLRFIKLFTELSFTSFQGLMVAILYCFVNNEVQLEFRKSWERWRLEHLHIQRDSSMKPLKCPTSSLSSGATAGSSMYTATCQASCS

One test deals with hGLP-1R (Homo sapiens, UniProt P43220). As to the kind of experiment: cell-based or functional assay.
Sequence of hGLP-1R (P43220 24-463): as above
In the case of B1, the Relative cAMP EC50 stood at 3.25 nM and the cAMP Rel EC50, nM (in the presence of 1% HSA) was found to be 279 nM.
The like results for B2 were, in that order, 1.93 nM and 560 nM.
As for B3, the Relative cAMP EC50 is 1.8 nM and the cAMP Rel EC50, nM (in the presence of 1% HSA) was 437 nM.
Take B4: the Relative cAMP EC50 is 5.8 nM and the cAMP Rel EC50, nM (in the presence of 1% HSA) turned out to be 1210 nM.
The like results for B5 were, in that order, 1.96 nM and 479 nM.
The like results for B6 were, in that order, 4.4 nM and 878 nM.
The like results for B7 were, in that order, 3.06 nM and 42.7 nM.
Take B8: the Relative cAMP EC50 turned out to be 0.706 nM and the cAMP Rel EC50, nM (in the presence of 1% HSA) was determined as 151 nM.
The like results for B9 were, in that order, 3.12 nM and 1010 nM.

For a further test, the target named is T1, human GIP receptor (human). As to the kind of experiment: cell-based or functional assay.
B1: the Relative cAMP EC50 was 0.136 nM and the cAMP Rel EC50, nM (in the presence of 1% HSA) was 25.6 nM.
The like results for B2 were, in that order, 0.228 nM and 78.4 nM.
As for B3, the Relative cAMP EC50 stood at 0.0773 nM and the cAMP Rel EC50, nM (in the presence of 1% HSA) amounted to 14.3 nM.
With B4, the Relative cAMP EC50 amounted to 0.421 nM and the cAMP Rel EC50, nM (in the presence of 1% HSA) came to 98.4 nM.
For the molecule B5, the Relative cAMP EC50 worked out at 0.0856 nM and the cAMP Rel EC50, nM (in the presence of 1% HSA) is 27.8 nM.
Turning to B6, the Relative cAMP EC50 is 0.0578 nM and the cAMP Rel EC50, nM (in the presence of 1% HSA) was determined as 16.8 nM.
Take B7: the Relative cAMP EC50 amounted to 0.098 nM and the cAMP Rel EC50, nM (in the presence of 1% HSA) was determined as 3.78 nM.
The like results for B8 were, in that order, 0.324 nM and 44.9 nM.
The like results for B9 were, in that order, 0.105 nM and 48.1 nM.

Another test addresses human GLP1-R (SNAP-GLP-1R expressed in HEK293 cells) (human) (UniProt P43220). As to the kind of experiment: cell-based or functional assay.
Consider B1, for which the GLP1R Internalization EC50 came to 71.9 nM and the Internalization % TOP turned out to be 58.2%.
The like results for B2 were, in that order, 78.2 nM and 55%.
The like results for B3 were, in that order, 56.6 nM and 45.3%.
The like results for B4 were, in that order, 89.2 nM and 55.7%.
As for B5, the GLP1R Internalization EC50 was found to be 79.5 nM and the Internalization % TOP stood at 70.7%.
The like results for B6 were, in that order, 61.8 nM and 51.9%.
As to B7, the GLP1R Internalization EC50 stood at 76.6 nM and the Internalization % TOP came out at 73.1%.
The like results for B8 were, in that order, 37.2 nM and 53.2%.
B9 registered a GLP1R Internalization EC50 of 58.8 nM and an Internalization % TOP of 68.6%.

Another test deals with human glucagon receptor (human) (UniProt P47871). The test is described as follows: cell-based or functional assay.
Sequence of human glucagon receptor (human) (P47871 26-477): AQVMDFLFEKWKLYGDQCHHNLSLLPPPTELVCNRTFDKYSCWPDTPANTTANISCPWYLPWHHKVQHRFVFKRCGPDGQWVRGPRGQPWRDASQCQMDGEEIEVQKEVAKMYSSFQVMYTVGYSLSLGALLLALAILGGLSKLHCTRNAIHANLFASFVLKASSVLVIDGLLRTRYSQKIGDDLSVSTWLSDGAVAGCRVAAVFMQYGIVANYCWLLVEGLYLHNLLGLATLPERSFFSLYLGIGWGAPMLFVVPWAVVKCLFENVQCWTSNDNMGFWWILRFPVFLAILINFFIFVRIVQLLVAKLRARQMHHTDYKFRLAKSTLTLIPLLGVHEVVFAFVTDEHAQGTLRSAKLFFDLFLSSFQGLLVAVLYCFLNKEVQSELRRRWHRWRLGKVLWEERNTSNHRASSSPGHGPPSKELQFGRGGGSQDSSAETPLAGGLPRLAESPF
On to B1, for which the Relative cAMP EC50 came out at 4.75 nM and the cAMP Rel EC50, nM (in the presence of 1% HSA) was determined as 387 nM.
The like results for B2 were, in that order, 7.06 nM and 2640 nM.
The like results for B3 were, in that order, 3.08 nM and 903 nM.
The like results for B4 were, in that order, 5.15 nM and 856 nM.
With B5, the Relative cAMP EC50 stood at 5.2 nM and the cAMP Rel EC50, nM (in the presence of 1% HSA) stood at 960 nM.
The like results for B6 were, in that order, 4.51 nM and 1040 nM.
The like results for B7 were, in that order, 4.37 nM and 113 nM.
Take B8: the Relative cAMP EC50 amounted to 5.54 nM and the cAMP Rel EC50, nM (in the presence of 1% HSA) was 1310 nM.
The like results for B9 were, in that order, 8.74 nM and 2800 nM.
